Test results as given in patent US20260209386A1 (MYTHIC THERAPEUTICS, published 2026).

T1: Human PTK7 Protein, His Tag (Acro Biosystems) (human, UniProt Q13308 31-704)
T1 construct: Bought His-tagged recombinant human PTK7; also called CCK4; Tyrosine-protein kinase-like 7
T1 sequence: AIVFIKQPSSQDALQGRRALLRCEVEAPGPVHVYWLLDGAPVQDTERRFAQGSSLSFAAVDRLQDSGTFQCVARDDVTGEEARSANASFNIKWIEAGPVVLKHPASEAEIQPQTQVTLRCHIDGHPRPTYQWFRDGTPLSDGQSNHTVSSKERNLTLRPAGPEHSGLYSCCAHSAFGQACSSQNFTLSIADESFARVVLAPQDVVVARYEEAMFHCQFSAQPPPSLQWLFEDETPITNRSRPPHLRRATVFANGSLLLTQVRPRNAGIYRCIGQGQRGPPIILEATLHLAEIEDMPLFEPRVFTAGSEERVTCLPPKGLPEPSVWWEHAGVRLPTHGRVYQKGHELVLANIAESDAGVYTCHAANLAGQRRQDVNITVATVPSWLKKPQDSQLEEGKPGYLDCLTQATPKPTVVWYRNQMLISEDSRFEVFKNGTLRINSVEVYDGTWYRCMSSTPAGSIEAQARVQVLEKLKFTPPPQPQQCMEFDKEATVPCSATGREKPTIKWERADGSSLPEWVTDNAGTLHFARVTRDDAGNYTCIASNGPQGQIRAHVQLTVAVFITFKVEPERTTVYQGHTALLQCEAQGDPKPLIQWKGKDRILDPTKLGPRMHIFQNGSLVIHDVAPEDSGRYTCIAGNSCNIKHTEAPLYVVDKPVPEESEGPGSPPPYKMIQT

T2: Human PTK7 Protein, His Tag, Acro Biosystems (human, UniProt Q13308 31-704)
T2 construct: Bought recombinant protein; also called CCK4; not shown: His tag
T2 sequence: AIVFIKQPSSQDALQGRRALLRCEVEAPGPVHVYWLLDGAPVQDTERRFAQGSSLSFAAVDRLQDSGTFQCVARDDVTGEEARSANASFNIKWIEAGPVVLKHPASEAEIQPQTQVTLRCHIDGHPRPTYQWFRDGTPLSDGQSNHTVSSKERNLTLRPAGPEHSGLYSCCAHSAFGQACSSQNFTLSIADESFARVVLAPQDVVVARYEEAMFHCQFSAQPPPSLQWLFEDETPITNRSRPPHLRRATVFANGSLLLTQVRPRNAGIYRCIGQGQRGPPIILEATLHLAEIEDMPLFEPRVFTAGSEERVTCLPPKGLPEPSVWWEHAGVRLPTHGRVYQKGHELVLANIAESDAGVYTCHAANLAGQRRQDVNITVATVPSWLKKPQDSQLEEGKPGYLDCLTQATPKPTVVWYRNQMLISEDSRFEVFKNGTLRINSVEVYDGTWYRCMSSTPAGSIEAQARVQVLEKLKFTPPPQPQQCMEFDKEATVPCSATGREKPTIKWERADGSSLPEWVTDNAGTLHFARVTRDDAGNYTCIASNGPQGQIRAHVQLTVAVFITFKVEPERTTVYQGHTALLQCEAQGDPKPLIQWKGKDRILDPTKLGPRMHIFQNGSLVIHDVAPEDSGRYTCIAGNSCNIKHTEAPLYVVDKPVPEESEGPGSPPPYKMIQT


What follows are binders tested against T1, Human PTK7 Protein, His Tag (Acro …) (assay: BLI (Octet), antibody on anti-human Fc sensor, 50 nM PTK7; 1 = pH dependent binding).

| binding result | Binder |
| --- | --- |
| binds | MYT11012 (antibody, V domains shown, MYT9359 LC variant; captured on anti-human Fc sensor) VH: EVQLVESGGGLVQPGGSLRLSCTASGFSLSSYAMGWVRQAPGKGLEWVGFINAGGNTYYANWAKGRFTISRDTSKNTVYLQMNSLRAEDTAVYFCARRYSRASGWYDLWGQGTLVTVSS VL: EIVMTQSPSTLSASVGDRVIITCQASQSISSYLAWYQQKPGKAPKLLIYAASTLASGVPSRFSGSGSGAEFTLTISSLQPDDFATYYCQSHSYSSGIDYGDVFGQGTKLTVL |
| binds | MYT11001 (antibody, V domains shown, MYT9359 LC variant; captured on anti-human Fc sensor) VH: EVQLVESGGGLVQPGGSLRLSCTASGFSLSSYAMGWVRQAPGKGLEWVGFINAGGNTYYANWAKGRFTISRDTSKNTVYLQMNSLRAEDTAVYFCARRYSRASGWYDLWGQGTLVTVSS VL: EIVMTQSPSTLSASVGDRVIITCQASQSISSYHAWYQQKPGKAPKLLIYAASTLASGVPSRFSGSGSGAEFTLTISSLQPDDFATYYCQSYSYSSGIDYGDVFGQGTKLTVL |
| binds | MYT11006 (antibody, V domains shown, MYT9359 LC variant; captured on anti-human Fc sensor) VH: EVQLVESGGGLVQPGGSLRLSCTASGFSLSSYAMGWVRQAPGKGLEWVGFINAGGNTYYANWAKGRFTISRDTSKNTVYLQMNSLRAEDTAVYFCARRYSRASGWYDLWGQGTLVTVSS VL: EIVMTQSPSTLSASVGDRVIITCQASQSISSYLAWYQQKPGKAPKLLIYAASHLASGVPSRFSGSGSGAEFTLTISSLQPDDFATYYCQSYSYSSGIDYGDVFGQGTKLTVL |
| binds | MYT11026 (antibody, V domains shown, MYT9359 LC alanine variant; captured on anti-human Fc sensor) VH: EVQLVESGGGLVQPGGSLRLSCTASGFSLSSYAMGWVRQAPGKGLEWVGFINAGGNTYYANWAKGRFTISRDTSKNTVYLQMNSLRAEDTAVYFCARRYSRASGWYDLWGQGTLVTVSS VL: EIVMTQSPSTLSASVGDRVIITCQASQSISSYLAWYQQKPGKAPKLLIYAASTLASGVPSRFSGSGSGAEFTLTISSLQPDDFATYYCQSYSYSSGIDYGAVFGQGTKLTVL |
| binds | MYT11000 (antibody, V domains shown, MYT9359 LC variant; captured on anti-human Fc sensor) VH: EVQLVESGGGLVQPGGSLRLSCTASGFSLSSYAMGWVRQAPGKGLEWVGFINAGGNTYYANWAKGRFTISRDTSKNTVYLQMNSLRAEDTAVYFCARRYSRASGWYDLWGQGTLVTVSS VL: EIVMTQSPSTLSASVGDRVIITCQASQSISSHLAWYQQKPGKAPKLLIYAASTLASGVPSRFSGSGSGAEFTLTISSLQPDDFATYYCQSYSYSSGIDYGDVFGQGTKLTVL |
| binds | MYT10999 (antibody, V domains shown, MYT9359 LC variant; captured on anti-human Fc sensor) VH: EVQLVESGGGLVQPGGSLRLSCTASGFSLSSYAMGWVRQAPGKGLEWVGFINAGGNTYYANWAKGRFTISRDTSKNTVYLQMNSLRAEDTAVYFCARRYSRASGWYDLWGQGTLVTVSS VL: EIVMTQSPSTLSASVGDRVIITCQASQSISHYLAWYQQKPGKAPKLLIYAASTLASGVPSRFSGSGSGAEFTLTISSLQPDDFATYYCQSYSYSSGIDYGDVFGQGTKLTVL |

The next lines start with the binder.

| Binder | binding result |
| --- | --- |
| MYT10998 (antibody, V domains shown, MYT9359 LC variant; captured on anti-human Fc sensor) VH: EVQLVESGGGLVQPGGSLRLSCTASGFSLSSYAMGWVRQAPGKGLEWVGFINAGGNTYYANWAKGRFTISRDTSKNTVYLQMNSLRAEDTAVYFCARRYSRASGWYDLWGQGTLVTVSS VL: EIVMTQSPSTLSASVGDRVIITCQASQSIHSYLAWYQQKPGKAPKLLIYAASTLASGVPSRFSGSGSGAEFTLTISSLQPDDFATYYCQSYSYSSGIDYGDVFGQGTKLTVL | binds |
| MYT11013 (antibody, V domains shown, MYT9359 LC variant; captured on anti-human Fc sensor) VH: EVQLVESGGGLVQPGGSLRLSCTASGFSLSSYAMGWVRQAPGKGLEWVGFINAGGNTYYANWAKGRFTISRDTSKNTVYLQMNSLRAEDTAVYFCARRYSRASGWYDLWGQGTLVTVSS VL: EIVMTQSPSTLSASVGDRVIITCQASQSISSYLAWYQQKPGKAPKLLIYAASTLASGVPSRFSGSGSGAEFTLTISSLQPDDFATYYCQSYHYSSGIDYGDVFGQGTKLTVL | binds |
| MYT11023 (antibody, V domains shown, MYT9359 LC variant; captured on anti-human Fc sensor) VH: EVQLVESGGGLVQPGGSLRLSCTASGFSLSSYAMGWVRQAPGKGLEWVGFINAGGNTYYANWAKGRFTISRDTSKNTVYLQMNSLRAEDTAVYFCARRYSRASGWYDLWGQGTLVTVSS VL: EIVMTQSPSTLSASVGDRVIITCQASQSISSYLAWYQQKPGKAPKLLIYAASTLASGVPSRFSGSGSGAEFTLTISSLQPDDFATYYCQSYSYSSGIDYGDHFGQGTKLTVL | binds |
| MYT11004 (antibody, V domains shown, MYT9359 LC variant; captured on anti-human Fc sensor) VH: EVQLVESGGGLVQPGGSLRLSCTASGFSLSSYAMGWVRQAPGKGLEWVGFINAGGNTYYANWAKGRFTISRDTSKNTVYLQMNSLRAEDTAVYFCARRYSRASGWYDLWGQGTLVTVSS VL: EIVMTQSPSTLSASVGDRVIITCQASQSISSYLAWYQQKPGKAPKLLIYAHSTLASGVPSRFSGSGSGAEFTLTISSLQPDDFATYYCQSYSYSSGIDYGDVFGQGTKLTVL | binds |
| MYT11018 (antibody, V domains shown, MYT9359 LC variant; captured on anti-human Fc sensor) VH: EVQLVESGGGLVQPGGSLRLSCTASGFSLSSYAMGWVRQAPGKGLEWVGFINAGGNTYYANWAKGRFTISRDTSKNTVYLQMNSLRAEDTAVYFCARRYSRASGWYDLWGQGTLVTVSS VL: EIVMTQSPSTLSASVGDRVIITCQASQSISSYLAWYQQKPGKAPKLLIYAASTLASGVPSRFSGSGSGAEFTLTISSLQPDDFATYYCQSYSYSSGHDYGDVFGQGTKLTVL | binds |
| MYT11021 (antibody, V domains shown, MYT9359 LC variant; captured on anti-human Fc sensor) VH: EVQLVESGGGLVQPGGSLRLSCTASGFSLSSYAMGWVRQAPGKGLEWVGFINAGGNTYYANWAKGRFTISRDTSKNTVYLQMNSLRAEDTAVYFCARRYSRASGWYDLWGQGTLVTVSS VL: EIVMTQSPSTLSASVGDRVIITCQASQSISSYLAWYQQKPGKAPKLLIYAASTLASGVPSRFSGSGSGAEFTLTISSLQPDDFATYYCQSYSYSSGIDYHDVFGQGTKLTVL | binds |
| MYT11025 (antibody, V domains shown, MYT9359 LC alanine variant; captured on anti-human Fc sensor) VH: EVQLVESGGGLVQPGGSLRLSCTASGFSLSSYAMGWVRQAPGKGLEWVGFINAGGNTYYANWAKGRFTISRDTSKNTVYLQMNSLRAEDTAVYFCARRYSRASGWYDLWGQGTLVTVSS VL: EIVMTQSPSTLSASVGDRVIITCQASQSISSYLAWYQQKPGKAPKLLIYAASTLASGVPSRFSGSGSGAEFTLTISSLQPDDFATYYCQSYSYSSGIAYGDVFGQGTKLTVL | binds |
| MYT11014 (antibody, V domains shown, MYT9359 LC variant; captured on anti-human Fc sensor) VH: EVQLVESGGGLVQPGGSLRLSCTASGFSLSSYAMGWVRQAPGKGLEWVGFINAGGNTYYANWAKGRFTISRDTSKNTVYLQMNSLRAEDTAVYFCARRYSRASGWYDLWGQGTLVTVSS VL: EIVMTQSPSTLSASVGDRVIITCQASQSISSYLAWYQQKPGKAPKLLIYAASTLASGVPSRFSGSGSGAEFTLTISSLQPDDFATYYCQSYSHSSGIDYGDVFGQGTKLTVL | binds |
| MYT11010 (antibody, V domains shown, MYT9359 LC variant; captured on anti-human Fc sensor) VH: EVQLVESGGGLVQPGGSLRLSCTASGFSLSSYAMGWVRQAPGKGLEWVGFINAGGNTYYANWAKGRFTISRDTSKNTVYLQMNSLRAEDTAVYFCARRYSRASGWYDLWGQGTLVTVSS VL: EIVMTQSPSTLSASVGDRVIITCQASQSISSYLAWYQQKPGKAPKLLIYAASTLASGVPSRFSGSGSGAEFTLTISSLQPDDFATYYCHSYSYSSGIDYGDVFGQGTKLTVL | binds |
| MYT11003 (antibody, V domains shown, MYT9359 LC variant; captured on anti-human Fc sensor) VH: EVQLVESGGGLVQPGGSLRLSCTASGFSLSSYAMGWVRQAPGKGLEWVGFINAGGNTYYANWAKGRFTISRDTSKNTVYLQMNSLRAEDTAVYFCARRYSRASGWYDLWGQGTLVTVSS VL: EIVMTQSPSTLSASVGDRVIITCQASQSISSYLAWYQQKPGKAPKLLIYHASTLASGVPSRFSGSGSGAEFTLTISSLQPDDFATYYCQSYSYSSGIDYGDVFGQGTKLTVL | binds |

What follows are binders tested against T2, Human PTK7 Protein, His Tag, Acro … (assay: BLI (Octet), antibody on anti-human Fc sensor, 50 nM PTK7 at pH 7.4, dissociation at pH 7.4 or 5.4; 1 = pH dependent binding relative to parent).

| binding result | Binder |
| --- | --- |
| binds | MYT10897 (antibody, V domains shown, MYT9345 variant, substitution at VH pos 52 (H2 03), no Ala mark) VH: EVQLVESGGGLVQPGGSLRLSCTASGFSLSNYVMNWVRQAPGKGLEWVGIIHSSGSTYYASWAKGRFTISRDTSKNTVYLQMNSLRAEDTAVYFCARGLYLWGQGTLVTVSS VL: EIVMTQSPSTLSASVGDRVIITCQSSQSVYNNNLLAWYQQKPGKAPKLLIYYTSNLASGVPSRFSGSGSGAEFTLTISSLQPDDFATYYCQGGYNGNIYAFGQGTKLTVL |
| binds | MYT10888 (antibody, V domains shown, MYT9345 variant, His at VH pos 29 (H1 04)) VH: EVQLVESGGGLVQPGGSLRLSCTASGFSHSNYVMNWVRQAPGKGLEWVGIIDSSGSTYYASWAKGRFTISRDTSKNTVYLQMNSLRAEDTAVYFCARGLYLWGQGTLVTVSS VL: EIVMTQSPSTLSASVGDRVIITCQSSQSVYNNNLLAWYQQKPGKAPKLLIYYTSNLASGVPSRFSGSGSGAEFTLTISSLQPDDFATYYCQGGYNGNIYAFGQGTKLTVL |
